Consider three molecules from article PMC7347597, “INTS10–INTS13–INTS14 form a functional module of Integrator that binds nucleic acids and the cleavage module” (Nature Communications, 2020).

Series [1] concerns the target T1, INT cleavage module (His10-INTS4–INTS9–(2S)-INTS11) (human, UniProt Q96HW7 1-963; Q9NV88 1-658; Q5TA45 1-600).
T1 construct: INTS4, human; INTS9, human; INTS11, human; The tags are named in the methods of the copurification assays; also called INTS4–INTS9–INTS11; INTS4–9–11; source: insect cells (HighFive, baculovirus), coexpressed; in cell extract and purified (StrepTrap, heparin, Superose 6); not shown: His10, N-terminal, kept; tandem Strep tag (2S), N-terminal, kept; copies: + +
The experiment in a line: pull-down; GST-INTS13 C-terminal constructs from E. coli lysates with insect cell extracts expressing cleavage module subunits, on glutathione sepharose; 50 mM HEPES pH 7.5, 200 mM NaCl, 2 mM DTT; Coomassie gel and Western blots. The settings on record: partners not purified.

The target in series [2] is T2, INTS13-INTS14 heterodimer (Homo sapiens, UniProt Q9NVM9;Q96SY0 1-706;1-518). The experiment in a line: fluorescence polarization; FP: 10 nM RNA, 10 mM HEPES pH 7.5, 5% glycerol, 2 mM MgCl2, 50 mM NaCl or none added, temperature not stated; EMSA: 50 mM HEPES pH 7.5, 200 mM NaCl, 2 mM MgCl2, on ice, 2 uM RNA or 1 uM DNA. The settings on record: protein: recombinant; tags: INTS13 N-terminal 2xStrep, HRV 3C cleavable (removed if needed); copies: 1;1; label: 5'-6-FAM; single strand. (Fluorescence polarisation rises when a labelled molecule tumbles more slowly, as on binding a larger partner.)

For series [3], the target named is T3, INTS10-INTS13-INTS14 heterotrimer (Homo sapiens, UniProt Q9NVR2;Q9NVM9;Q96SY0 1-710;1-706;1-518). The series is described as above. The settings on record: protein: recombinant; tags: INTS13 N-terminal 2xStrep, HRV 3C cleavable (removed if needed); copies: 1;1;1; label: 5'-6-FAM; single strand.
Series [4] concerns the target T2, INTS13-INTS14 heterodimer. The experiment in a line: EMSA; FP: 10 nM RNA, 10 mM HEPES pH 7.5, 5% glycerol, 2 mM MgCl2, 50 mM NaCl or none added, temperature not stated; EMSA: 50 mM HEPES pH 7.5, 200 mM NaCl, 2 mM MgCl2, on ice, 2 uM RNA or 1 uM DNA. The settings on record: protein: recombinant; tags: INTS13 N-terminal 2xStrep, HRV 3C cleavable (removed if needed); copies: 1;1; hairpin. In general terms: A gel shift assay detects complexes by their altered migration in electrophoresis.

In series [5] the target is T3, INTS10-INTS13-INTS14 heterotrimer. The series is described as above. The settings on record: protein: recombinant; tags: INTS13 N-terminal 2xStrep, HRV 3C cleavable (removed if needed); copies: 1;1;1; hairpin.

T3 sequence (Q9NVR2 whole entry, chain 1 of 3): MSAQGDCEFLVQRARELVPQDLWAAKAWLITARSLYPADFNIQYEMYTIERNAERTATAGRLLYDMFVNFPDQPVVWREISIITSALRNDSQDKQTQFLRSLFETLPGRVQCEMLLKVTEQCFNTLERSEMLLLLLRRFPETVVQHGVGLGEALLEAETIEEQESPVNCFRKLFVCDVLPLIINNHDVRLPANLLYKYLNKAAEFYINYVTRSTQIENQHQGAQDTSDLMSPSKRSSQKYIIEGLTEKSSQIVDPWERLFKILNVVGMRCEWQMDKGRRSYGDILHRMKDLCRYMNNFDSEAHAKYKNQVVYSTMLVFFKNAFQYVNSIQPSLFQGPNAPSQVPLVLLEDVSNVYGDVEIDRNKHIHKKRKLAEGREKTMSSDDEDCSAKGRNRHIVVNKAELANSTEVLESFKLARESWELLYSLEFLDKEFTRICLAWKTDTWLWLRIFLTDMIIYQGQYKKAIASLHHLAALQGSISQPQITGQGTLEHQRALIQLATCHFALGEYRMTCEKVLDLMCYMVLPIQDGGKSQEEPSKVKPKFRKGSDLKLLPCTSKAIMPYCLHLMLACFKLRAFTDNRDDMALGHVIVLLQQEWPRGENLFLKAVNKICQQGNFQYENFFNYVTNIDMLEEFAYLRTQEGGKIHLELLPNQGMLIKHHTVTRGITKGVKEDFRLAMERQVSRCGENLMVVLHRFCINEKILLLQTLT
T3 sequence (Q9NVM9 whole entry, chain 2 of 3): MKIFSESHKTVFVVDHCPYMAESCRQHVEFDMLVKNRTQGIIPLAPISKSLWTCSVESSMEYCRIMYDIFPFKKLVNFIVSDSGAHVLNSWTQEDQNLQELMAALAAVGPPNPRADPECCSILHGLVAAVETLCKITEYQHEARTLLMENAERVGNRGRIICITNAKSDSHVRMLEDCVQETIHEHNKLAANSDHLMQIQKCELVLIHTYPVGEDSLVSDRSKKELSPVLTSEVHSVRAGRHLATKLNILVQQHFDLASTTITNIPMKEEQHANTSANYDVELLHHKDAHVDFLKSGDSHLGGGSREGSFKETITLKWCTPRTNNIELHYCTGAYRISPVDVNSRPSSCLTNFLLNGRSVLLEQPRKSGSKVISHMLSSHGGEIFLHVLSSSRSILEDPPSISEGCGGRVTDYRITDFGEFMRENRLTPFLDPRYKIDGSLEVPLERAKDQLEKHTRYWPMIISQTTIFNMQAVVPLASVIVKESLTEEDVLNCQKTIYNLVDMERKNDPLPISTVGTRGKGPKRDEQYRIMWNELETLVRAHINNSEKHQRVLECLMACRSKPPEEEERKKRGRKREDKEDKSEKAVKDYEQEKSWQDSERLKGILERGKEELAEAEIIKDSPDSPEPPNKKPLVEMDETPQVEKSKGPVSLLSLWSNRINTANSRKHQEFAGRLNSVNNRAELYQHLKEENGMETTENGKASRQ
T3 sequence (Q96SY0 whole entry, chain 3 of 3): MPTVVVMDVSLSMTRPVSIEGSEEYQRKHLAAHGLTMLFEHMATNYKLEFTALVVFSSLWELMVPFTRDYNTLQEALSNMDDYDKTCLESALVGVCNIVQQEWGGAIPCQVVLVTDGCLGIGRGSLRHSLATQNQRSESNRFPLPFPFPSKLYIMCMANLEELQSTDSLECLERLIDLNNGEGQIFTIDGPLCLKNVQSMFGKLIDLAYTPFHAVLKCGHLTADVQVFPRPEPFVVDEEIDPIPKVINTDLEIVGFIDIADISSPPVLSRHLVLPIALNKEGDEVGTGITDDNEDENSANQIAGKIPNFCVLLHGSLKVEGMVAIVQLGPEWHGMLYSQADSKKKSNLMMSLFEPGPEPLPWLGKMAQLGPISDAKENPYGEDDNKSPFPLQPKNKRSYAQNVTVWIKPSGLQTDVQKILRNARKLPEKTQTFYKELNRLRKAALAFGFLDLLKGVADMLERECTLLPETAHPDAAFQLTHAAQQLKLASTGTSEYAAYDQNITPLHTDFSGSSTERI
T2 sequence (Q9NVM9 whole entry, chain 1 of 2): as the sequence (Q9NVM9 whole entry, chain 2 of 3) above
T2 sequence (Q96SY0 whole entry, chain 2 of 2): as the sequence (Q96SY0 whole entry, chain 3 of 3) above
T1 sequence (Q96HW7 whole entry, chain 1 of 3): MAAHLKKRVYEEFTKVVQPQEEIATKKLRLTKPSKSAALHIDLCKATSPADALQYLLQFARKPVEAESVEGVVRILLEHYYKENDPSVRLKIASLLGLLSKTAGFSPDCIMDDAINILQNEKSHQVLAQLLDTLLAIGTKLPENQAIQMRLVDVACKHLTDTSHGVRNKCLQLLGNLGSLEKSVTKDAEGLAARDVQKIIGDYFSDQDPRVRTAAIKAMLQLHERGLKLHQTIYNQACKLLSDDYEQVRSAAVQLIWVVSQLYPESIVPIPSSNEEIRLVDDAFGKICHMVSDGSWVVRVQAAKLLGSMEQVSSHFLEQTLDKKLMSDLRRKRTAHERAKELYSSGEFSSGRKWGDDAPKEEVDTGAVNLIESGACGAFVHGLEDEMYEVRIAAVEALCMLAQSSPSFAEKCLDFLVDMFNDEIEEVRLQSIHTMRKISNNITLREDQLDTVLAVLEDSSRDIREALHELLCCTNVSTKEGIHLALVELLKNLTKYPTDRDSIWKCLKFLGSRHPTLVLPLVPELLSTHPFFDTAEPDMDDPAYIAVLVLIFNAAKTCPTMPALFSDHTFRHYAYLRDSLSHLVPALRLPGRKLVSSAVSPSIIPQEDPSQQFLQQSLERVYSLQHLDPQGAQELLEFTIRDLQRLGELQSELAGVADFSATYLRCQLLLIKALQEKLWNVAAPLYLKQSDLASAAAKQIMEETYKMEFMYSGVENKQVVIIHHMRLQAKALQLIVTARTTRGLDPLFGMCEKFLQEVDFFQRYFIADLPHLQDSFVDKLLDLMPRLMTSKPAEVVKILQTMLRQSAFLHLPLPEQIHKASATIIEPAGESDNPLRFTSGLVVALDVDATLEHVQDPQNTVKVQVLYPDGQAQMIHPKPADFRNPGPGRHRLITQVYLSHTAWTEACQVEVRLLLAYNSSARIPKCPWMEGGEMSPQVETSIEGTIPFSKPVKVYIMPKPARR
T1 sequence (Q9NV88 whole entry, chain 2 of 3): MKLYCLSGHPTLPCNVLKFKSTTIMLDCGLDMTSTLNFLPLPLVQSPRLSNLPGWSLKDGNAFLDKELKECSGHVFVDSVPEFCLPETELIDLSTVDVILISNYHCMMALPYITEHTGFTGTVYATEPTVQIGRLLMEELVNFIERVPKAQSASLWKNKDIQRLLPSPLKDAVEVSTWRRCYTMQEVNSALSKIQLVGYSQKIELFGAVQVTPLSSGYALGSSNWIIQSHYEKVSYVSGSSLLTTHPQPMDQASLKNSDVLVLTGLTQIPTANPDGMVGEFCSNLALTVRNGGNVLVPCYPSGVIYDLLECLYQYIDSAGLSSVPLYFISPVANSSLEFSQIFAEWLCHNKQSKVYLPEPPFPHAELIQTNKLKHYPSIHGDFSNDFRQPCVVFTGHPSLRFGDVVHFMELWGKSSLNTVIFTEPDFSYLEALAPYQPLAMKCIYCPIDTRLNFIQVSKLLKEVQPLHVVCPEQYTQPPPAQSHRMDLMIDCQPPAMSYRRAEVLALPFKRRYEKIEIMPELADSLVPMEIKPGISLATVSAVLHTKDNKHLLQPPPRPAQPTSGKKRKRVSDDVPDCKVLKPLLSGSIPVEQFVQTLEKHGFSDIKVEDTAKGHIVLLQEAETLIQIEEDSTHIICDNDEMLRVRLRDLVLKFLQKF
T1 sequence (Q5TA45 whole entry, chain 3 of 3): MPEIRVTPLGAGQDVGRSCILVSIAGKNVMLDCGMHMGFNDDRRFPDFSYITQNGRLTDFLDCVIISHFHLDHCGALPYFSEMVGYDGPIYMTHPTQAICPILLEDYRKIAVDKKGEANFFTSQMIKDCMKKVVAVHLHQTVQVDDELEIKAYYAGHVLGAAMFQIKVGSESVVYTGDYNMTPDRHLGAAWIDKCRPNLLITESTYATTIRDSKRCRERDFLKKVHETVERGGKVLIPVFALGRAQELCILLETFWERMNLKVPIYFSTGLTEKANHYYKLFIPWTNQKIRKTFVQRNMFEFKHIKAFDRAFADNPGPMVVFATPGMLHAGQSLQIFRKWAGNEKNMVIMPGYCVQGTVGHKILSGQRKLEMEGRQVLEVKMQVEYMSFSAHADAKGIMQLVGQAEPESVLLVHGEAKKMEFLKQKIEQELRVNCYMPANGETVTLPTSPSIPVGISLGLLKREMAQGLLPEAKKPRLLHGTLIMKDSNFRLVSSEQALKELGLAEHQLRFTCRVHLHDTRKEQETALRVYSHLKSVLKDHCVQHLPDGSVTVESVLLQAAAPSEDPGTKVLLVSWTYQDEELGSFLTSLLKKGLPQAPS

B1: GST-INTS13 cleavage module-binding motif (CMBM, residues 649–694) (domain or fragment, human, UniProt Q9NVM9 649-694, looked up)
chain: GPVSLLSLWSNRINTANSRKHQEFAGRLNSVNNRAELYQHLKEENG
notes: INTS13, human, conserved C-terminal helices, residues 649–694; also called GST-CMBM; INTS13 CMBM; source: E. coli BL21 Star (DE3), in lysate; not shown: GST, N-terminal, kept
Take B1: the binding result in series [1] was “binds”.
Broadly, the Kd is the concentration at which binding is half-saturated. Turning to UUUUUUUUUUUU (ssRNA) [U12 RNA], the figures for the Kd in series [2] and in series [3] were 570 ± 50 nM and 420 ± 20 nM, respectively.
With GGGUGGGGGACUGCGUUCGCGCUUUCCCCUGGCCGG (structured_RNA) [U1 SL4], in series [4], the binding result is given as “binds”. Further, the “apparent K (half saturation)” value in series [5] was approximately 1000 nM.
